Assay results as given in PMC6024848.

Biological target: AcLys, putative Acinetobacter baumannii AB 5075 prophage endolysin (Acinetobacter baumannii AB 5075 (prophage region))
Assay: SEC; gel permeation (size-exclusion) chromatography of recombinant AcLys; Superose 12 HR10/30 in 50 mM Bis-Tris pH 6.0 named for the purification step; monomer and dimer fractions redistribute to the mixture 3-4 h after separation; more monomer in dilute solution; beta-mercaptoethanol does not affect dimerization; dimer to monomers

Substance: AcLys, putative Acinetobacter baumannii AB 5075 prophage endolysin (enzyme)
- stoichiometry N: 2
